# T1: PUF4 RNA-binding domain (Saccharomyces cerevisiae, UniProt P25339 537-888)
# T1 sequence: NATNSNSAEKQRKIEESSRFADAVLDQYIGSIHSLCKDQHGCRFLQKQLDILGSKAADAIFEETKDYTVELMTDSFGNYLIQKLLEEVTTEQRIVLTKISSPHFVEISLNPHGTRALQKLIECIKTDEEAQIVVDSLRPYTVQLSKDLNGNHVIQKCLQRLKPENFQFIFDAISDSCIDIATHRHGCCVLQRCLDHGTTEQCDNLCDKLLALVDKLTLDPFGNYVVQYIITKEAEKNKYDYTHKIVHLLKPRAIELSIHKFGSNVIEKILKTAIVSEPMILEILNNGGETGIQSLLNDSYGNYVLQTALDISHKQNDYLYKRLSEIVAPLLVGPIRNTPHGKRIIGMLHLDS
# Target: T1, PUF4 RNA-binding domain
# Assay: Mg; RNA-MaP; 20 mM Na-HEPES pH 7.4, 30 mM KOAc, 0.75 mM MgCl2, 0.1% Tween-20, 5% glycerol, 0.1 mg/mL BSA, 2 mM DTT; 25 C; 0.0125-409.6 nM protein
# Details: tags: N-His6-TEV cleaved; C-SNAP kept, Cy3B-labelled; label: tethered on chip by stalled RNA polymerase
row,Binder,Kd
1,UCUCUUUAUAUUACUAUCUCUU (ssRNA) [Ib_S1_P5E.1_K5.1_C5.1_H5.1_[G2A]_A5.1_F5.1_[T8C]_T5.1],728 nM
2,UCUCUUUUUAUUAGUAUCUCUU (ssRNA) [Ib_S1_P5E.1_K5.1_C5.1_H5.1_[G2T]_A5.1_F5.1_[T8G]_T5.1],> 2300 nM
3,Id_ii_S2_P3E.2_K3.1_C3.2_[C-2T]_H3.1_A3.1_F3.1_T3.2_[T9C]_[A10G] (ssRNA) RNA: UUUGAUUAAUAUGAUAUCGUUCUUUCUUUUGUAUAUACGUUCUUUCUCGAUAUCAUAUUAAUCUUU,3.7 nM
4,Id_ii_S2_P3E.2_K3.1_C3.2_[C-2T]_H3.1_A3.1_F3.1_T3.2_[T9A] (ssRNA) RNA: UUUGAUUAAUAUGAUAUCGUUCUUUCUUUUGUAUAUAAAUUCUUUCUCGAUAUCAUAUUAAUCUUU,6.87 nM
5,Id_ii_S2_P3E.2_K3.1_C3.2_[C-2T]_H3.1_A3.1_F3.1_T3.2 (ssRNA) RNA: UUUGAUUAAUAUGAUAUCGUUCUUUCUUUUGUAUAUAUAUUCUUUCUCGAUAUCAUAUUAAUCUUU,1.24 nM
6,Id_ii_S2_P3E.2_K3.1_C3.2_[C-2T]_H3.1_A3.1_F3.1_T3.2_[T9C]_[A10C] (ssRNA) RNA: UUUGAUUAAUAUGAUAUCGUUCUUUCUUUUGUAUAUACCUUCUUUCUCGAUAUCAUAUUAAUCUUU,2.82 nM
7,Id_ii_S2_P3E.2_K3.1_C3.2_[C-2T]_H3.1_A3.1_F3.1_T3.2_[T9A]_[A10C] (ssRNA) RNA: UUUGAUUAAUAUGAUAUCGUUCUUUCUUUUGUAUAUAACUUCUUUCUCGAUAUCAUAUUAAUCUUU,4.14 nM
8,Id_ii_S2_P3E.2_K3.1_C3.2_[C-2A]_[T-1G]_H3.1_A3.1_F3.1_T3.2_[A10T] (ssRNA) RNA: UUUGAUUAAUAUGAUAUCGUUCUUUCUAGUGUAUAUAUUUUCUUUCUCGAUAUCAUAUUAAUCUUU,4.88 nM
9,Id_ii_S2_P3E.2_K3.1_C3.2_[C-2A]_H3.1_A3.1_F3.1_T3.2_[T9C]_[A10G] (ssRNA) RNA: UUUGAUUAAUAUGAUAUCGUUCUUUCUAUUGUAUAUACGUUCUUUCUCGAUAUCAUAUUAAUCUUU,19 nM
10,Id_ii_S2_P3E.2_K3.1_C3.2_[C-2A]_[T-1C]_H3.1_A3.1_F3.1_T3.2_[T9A] (ssRNA) RNA: UUUGAUUAAUAUGAUAUCGUUCUUUCUACUGUAUAUAAAUUCUUUCUCGAUAUCAUAUUAAUCUUU,3.66 nM
11,Id_ii_S2_P3E.2_K3.1_C3.2_[T-1C]_H3.1_A3.1_F3.1_T3.2_[T9G]_[A10T] (ssRNA) RNA: UUUGAUUAAUAUGAUAUCGUUCUUUCUCCUGUAUAUAGUUUCUUUCUCGAUAUCAUAUUAAUCUUU,2.32 nM
12,Id_ii_S2_P3E.2_K3.1_C3.2_[C-2A]_H3.1_A3.1_F3.1_T3.2_[T9C]_[A10T] (ssRNA) RNA: UUUGAUUAAUAUGAUAUCGUUCUUUCUAUUGUAUAUACUUUCUUUCUCGAUAUCAUAUUAAUCUUU,8.7 nM
13,Id_ii_S2_P3E.2_K3.1_C3.2_[C-2T]_H3.1_A3.1_F3.1_T3.2_[T9A]_[A10T] (ssRNA) RNA: UUUGAUUAAUAUGAUAUCGUUCUUUCUUUUGUAUAUAAUUUCUUUCUCGAUAUCAUAUUAAUCUUU,4.47 nM
14,Id_ii_S2_P3E.2_K3.1_C3.2_[T-1G]_H3.1_A3.1_F3.1_T3.2_[T9A]_[A10G] (ssRNA) RNA: UUUGAUUAAUAUGAUAUCGUUCUUUCUCGUGUAUAUAAGUUCUUUCUCGAUAUCAUAUUAAUCUUU,7.62 nM
15,Id_ii_S2_P3E.2_K3.1_C3.2_[C-2A]_[T-1G]_H3.1_A3.1_F3.1_T3.2_[A10G] (ssRNA) RNA: UUUGAUUAAUAUGAUAUCGUUCUUUCUAGUGUAUAUAUGUUCUUUCUCGAUAUCAUAUUAAUCUUU,5.7 nM
16,Id_ii_S2_P3E.2_K3.1_C3.2_[C-2A]_H3.1_A3.1_F3.1_T3.2 (ssRNA) RNA: UUUGAUUAAUAUGAUAUCGUUCUUUCUAUUGUAUAUAUAUUCUUUCUCGAUAUCAUAUUAAUCUUU,5.13 nM
17,Id_ii_S2_P3E.2_K3.1_C3.2_[C-2A]_[T-1G]_H3.1_A3.1_F3.1_T3.2_[T9A]_[A10G] (ssRNA) RNA: UUUGAUUAAUAUGAUAUCGUUCUUUCUAGUGUAUAUAAGUUCUUUCUCGAUAUCAUAUUAAUCUUU,10.2 nM
18,Id_ii_S2_P3E.2_K3.1_C3.2_[C-2A]_[T-1C]_H3.1_A3.1_F3.1_T3.2_[A10C] (ssRNA) RNA: UUUGAUUAAUAUGAUAUCGUUCUUUCUACUGUAUAUAUCUUCUUUCUCGAUAUCAUAUUAAUCUUU,1.69 nM

row,Binder,Kd
1,Id_ii_S2_P3E.2_K3.1_C3.2_[C-2A]_[T-1A]_H3.1_A3.1_F3.1_T3.2_[T9G]_[A10C] (ssRNA) RNA: UUUGAUUAAUAUGAUAUCGUUCUUUCUAAUGUAUAUAGCUUCUUUCUCGAUAUCAUAUUAAUCUUU,10 nM
2,Id_ii_S2_P3E.2_K3.1_C3.2_[C-2A]_[T-1G]_H3.1_A3.1_F3.1_T3.2_[A10C] (ssRNA) RNA: UUUGAUUAAUAUGAUAUCGUUCUUUCUAGUGUAUAUAUCUUCUUUCUCGAUAUCAUAUUAAUCUUU,38.5 nM
3,Id_ii_S2_P3E.2_K3.1_C3.2_[C-2T]_H3.1_A3.1_F3.1_T3.2_[A10C] (ssRNA) RNA: UUUGAUUAAUAUGAUAUCGUUCUUUCUUUUGUAUAUAUCUUCUUUCUCGAUAUCAUAUUAAUCUUU,1.55 nM
4,Id_ii_S2_P3E.2_K3.1_C3.2_[C-2T]_H3.1_A3.1_F3.1_T3.2_[A10G] (ssRNA) RNA: UUUGAUUAAUAUGAUAUCGUUCUUUCUUUUGUAUAUAUGUUCUUUCUCGAUAUCAUAUUAAUCUUU,2.61 nM
5,Id_ii_S2_P3E.2_K3.1_C3.2_[C-2A]_H3.1_A3.1_F3.1_T3.2_[A10T] (ssRNA) RNA: UUUGAUUAAUAUGAUAUCGUUCUUUCUAUUGUAUAUAUUUUCUUUCUCGAUAUCAUAUUAAUCUUU,3.05 nM
6,Id_ii_S2_P3E.2_K3.1_C3.2_[C-2A]_[T-1C]_H3.1_A3.1_F3.1_T3.2_[T9G]_[A10C] (ssRNA) RNA: UUUGAUUAAUAUGAUAUCGUUCUUUCUACUGUAUAUAGCUUCUUUCUCGAUAUCAUAUUAAUCUUU,7.15 nM
7,Id_ii_S2_P3E.2_K3.1_C3.2_[T-1G]_H3.1_A3.1_F3.1_T3.2_[T9G]_[A10G] (ssRNA) RNA: UUUGAUUAAUAUGAUAUCGUUCUUUCUCGUGUAUAUAGGUUCUUUCUCGAUAUCAUAUUAAUCUUU,10.2 nM
8,Id_ii_S2_P3E.2_K3.1_C3.2_[C-2A]_[T-1C]_H3.1_A3.1_F3.1_T3.2_[T9C]_[A10G] (ssRNA) RNA: UUUGAUUAAUAUGAUAUCGUUCUUUCUACUGUAUAUACGUUCUUUCUCGAUAUCAUAUUAAUCUUU,49.4 nM
9,Id_ii_S2_P3E.2_K3.1_C3.2_[T-1G]_H3.1_A3.1_F3.1_T3.2_[A10T] (ssRNA) RNA: UUUGAUUAAUAUGAUAUCGUUCUUUCUCGUGUAUAUAUUUUCUUUCUCGAUAUCAUAUUAAUCUUU,1.39 nM
10,Id_ii_S2_P3E.2_K3.1_C3.2_[C-2A]_[T-1A]_H3.1_A3.1_F3.1_T3.2_[A10G] (ssRNA) RNA: UUUGAUUAAUAUGAUAUCGUUCUUUCUAAUGUAUAUAUGUUCUUUCUCGAUAUCAUAUUAAUCUUU,7.2 nM
11,Id_ii_S2_P3E.2_K3.1_C3.2_[T-1G]_H3.1_A3.1_F3.1_T3.2_[T9A]_[A10T] (ssRNA) RNA: UUUGAUUAAUAUGAUAUCGUUCUUUCUCGUGUAUAUAAUUUCUUUCUCGAUAUCAUAUUAAUCUUU,1.85 nM
12,Id_ii_S2_P3E.2_K3.1_C3.2_[C-2A]_[T-1A]_H3.1_A3.1_F3.1_T3.2_[A10T] (ssRNA) RNA: UUUGAUUAAUAUGAUAUCGUUCUUUCUAAUGUAUAUAUUUUCUUUCUCGAUAUCAUAUUAAUCUUU,6.37 nM
13,Id_ii_S2_P3E.2_K3.1_C3.2_[C-2A]_H3.1_A3.1_F3.1_T3.2_[T9C]_[A10C] (ssRNA) RNA: UUUGAUUAAUAUGAUAUCGUUCUUUCUAUUGUAUAUACCUUCUUUCUCGAUAUCAUAUUAAUCUUU,6.81 nM
14,Id_ii_S2_P3E.2_K3.1_C3.2_[C-2A]_[T-1A]_H3.1_A3.1_F3.1_T3.2_[T9A]_[A10T] (ssRNA) RNA: UUUGAUUAAUAUGAUAUCGUUCUUUCUAAUGUAUAUAAUUUCUUUCUCGAUAUCAUAUUAAUCUUU,10.1 nM
15,Id_ii_S2_P3E.2_K3.1_C3.2_[C-2T]_H3.1_A3.1_F3.1_T3.2_[T9C]_[A10T] (ssRNA) RNA: UUUGAUUAAUAUGAUAUCGUUCUUUCUUUUGUAUAUACUUUCUUUCUCGAUAUCAUAUUAAUCUUU,4.94 nM
16,Id_ii_S2_P3E.2_K3.1_C3.2_[C-2T]_H3.1_A3.1_F3.1_T3.2_[A10T] (ssRNA) RNA: UUUGAUUAAUAUGAUAUCGUUCUUUCUUUUGUAUAUAUUUUCUUUCUCGAUAUCAUAUUAAUCUUU,1.56 nM
17,UCUCUUUAUAUUAAUAUCUCUU (ssRNA) [Ib_S1_P5E.1_K5.1_C5.1_H5.1_[G2A]_A5.1_F5.1_[T8A]_T5.1],698 nM

# Reference: article PMC9352680, “A comprehensive thermodynamic model for RNA binding by the Saccharomyces cerevisiae Pumilio protein PUF4”
